This is an account of results in patent US8846394B2, “Treatment of neurological deficits in the striatum or substanta nigra pars compacta” (Ethicon, Inc., priority 2004, dated 2014).

The subject of assay [1] is embryonic rat dopaminergic neurons. The conditions noted are these: in vitro; cited from earlier work.
Assay [2] concerns human umbilical cord cells. Description: Quantitative PCR of Nurr1 and TH mRNA in umbilical postpartum cells after dopaminergic differentiation. It counts as cell-based. The procedure:
Postpartum cells were isolated from an umbilical cord and placental digestion as described in U.S. patent application Ser. Nos. 10/887,012 and 10/877,446. Briefly, human umbilical cord and placental cells were isolated from explants of postpartum tissue.
Isolated umbilical and placental cells were seeded at 1,000 cells/cm^2 into laminin coated 24 well tissue culture plates (Corning, N.Y.). Cells were initially seeded in maintenance media (control) as described in nonprov serial no. After 4 days in maintenance media, cells were split into four groups. The first set of cells was switched to NBM supplemented with EGF (20 nanograms/milliliter) and bFGF (20 nanograms/milliliter) and grown for 13 days. Sets two through four were switched to NBM supplemented with EGF (20 nanograms/milliliter) and bFGF (20 nanograms/milliliter) and grown for 6 days. The NBM supplemented with EGF and […] was then removed and cells were cultured in NBM containing; MP52 plus SHH plus FGF8 (set two); MP52 plus SHH plus FGF8 plus retinoic acid (RA) (set three); or MP52 plus RA (set four) for a further 7 days of culture.
At the end of the 17-day experimental period, RNA was isolated from the induced cell population using an Rneasy kit (RNeasy Mini kit, Qiagen, Valencia, Calif.). […]

Assay [3] concerns adult rodent hippocampal neural progenitors. Briefly: Immunocytochemical staining (TuJ1, TH, GFAP) of neural progenitors after 17-day culture with growth factors. It counts as cell-based, rat. The procedure: Adult rodent hippocampal neural progenitors were isolated from adult rat brain following previously published methods [Svendson et al., Nat Rev Genet., 5(2) 136-44 (2004)]. Isolated cells were seeded at 1,000 cells/cm^2 into laminin-coated 24 well tissue culture plates (Becton Dickson, Bedford, Mass.).
Seeded cells were initially grown in a supplemented neuralbasal medium (NBM). The NBM was Neurobasal-A media (Invitrogen, Carlsbad, Calif.) with B27 supplement (Invitrogen, Carlsbad, Calif.), and L-glutamine (4 milliMolar) (Sigma, St. Louis, Mo.). Supplemented NBM also contains epidermal growth factor (EGF) (Sigma, St. Louis, Mo.), at 20 nanograms/milliliter, and basic fibroblast growth factor, (bFGF) (Peprotech, Rocky Hill, N.J.), at 20 nanograms/milliliter).
Set one of cells was cultured in supplemented NBM for 17 days. Set two of cells was initially cultured in supplemented NBM for 4 days. The supplemented NBM then was removed from the culture plates and cells were cultured in NBM containing MP52 (Biopharm GmbH, Heidelberg, Germany) at 20 nanograms/milliliter for a period of 13 days. Set three of cells was initially cultured in supplemented NBM for 10 days. The supplemented NBM then was removed from the culture plate, and cells were cultured in NMB containing Sonic Hedgehog, (SHH) (Sigma, St. Louis, Mo.), at 200 nanograms/milliliter, and fibroblast growth factor 8 (FGF8) (Peprotech, Rocky Hill, N.J.), at 100 nanograms/milliliter. Set four of cells was initially cultured in supplemented NBM for 10 days. The supplemented NBM then was removed from the culture plates and cells were cultured in NBM containing MP52 at 20 nanograms/milliliter, SHH at 200 nanograms/milliliter, and FGF8 at 100 nanograms/milliliter).
At the end of the 17-day experimental period, all cultures were fixed with 4 percent paraformaldehyde (Sigma, St. Louis, Mo.) and immunocytochemical staining was performed to evaluate expression of Beta Tubulin III (TuJ1), glial fibrilary acidic protein (GFAP), and tyrosine hydroxylase (TH). […]
Following immunocytochemical staining, fluorescence was visualized using an Olympus inverted epifluorescent microscope and images were taken with a digital camera and ImagePro software (Media Cybernetics, Silver Spring, Md.). To further quantify the response, fields of cells were counted at a magnification power of 200× to examine the percentage of positive cells for each marker and compared to control samples grown in NBM alone. A minimum of 1,000 cells were counted per condition or, if less, the total number of cells observed in that condition.
The percentage of cells positive for a given marker was determined by dividing the number of positive cells for a particular marker by the total number of nucleated cells determined by DAPI staining.

The test system of assay [4] is adult rat nigrostriatal dopaminergic system. The note with it: intraparenchymal injection; cited from earlier work.
Setting [5] is: immunostain, end of 17-day culture, positive cells / DAPI nucleated cells.

B1: MP52: human recombinant GDF5 protein, 120 amino acid residues with alanine at the N-terminus, from Biopharm GmbH (protein, UniProt P43026 382-501, looked up)
Growth/differentiation factor …: APLATRQGKRPSKNLKARCSRKALHVNFKDMGWDDWIIAPLEYEAFHCEGLCEFPLRSHLEPTNHAVIQTLMNSMDPESTPPTCCVPTRLSPISILFIDSANNVVYKQYEDMVVESCGCR
Regarding B1, the “survival-promoting action on dopaminergic neurons against MPP+” value in assay [1] is given as “survival-promoting actions”. Moreover, in assay [2] (postpartum cell cultures (umbilicus and placenta), compared to control (NBM plus EGF plus FGF8)), the “Nurr1 expression, in words” value is on record as “induced”. Moreover, in assay [2] (umbilical cell cultures, compared to control), the “Tyrosine hydroxylase (TH) expression, in words” value is on record as “induced”. In addition, the “differentiation towards an astrocytic phenotype (GFAP expression), in words” value in assay [3] (immunocytochemistry) is “increased expression”.

B2: GDF5: growth and differentiation factor protein of the TGF-beta superfamily (literature studies) (protein, UniProt P43026 382-501, looked up)
Growth/differentiation factor …: APLATRQGKRPSKNLKARCSRKALHVNFKDMGWDDWIIAPLEYEAFHCEGLCEFPLRSHLEPTNHAVIQTLMNSMDPESTPPTCCVPTRLSPISILFIDSANNVVYKQYEDMVVESCGCR
For B2, in assay [4], the “protection of nigrostriatal dopaminergic system from death induced by 6OHDA lesion” value is on record as “protects”.

B3: NBM + MP52: neurobasal medium containing MP52 at 20 nanograms/milliliter (protein, UniProt P43026 382-501, looked up)
Growth/differentiation factor …: APLATRQGKRPSKNLKARCSRKALHVNFKDMGWDDWIIAPLEYEAFHCEGLCEFPLRSHLEPTNHAVIQTLMNSMDPESTPPTCCVPTRLSPISILFIDSANNVVYKQYEDMVVESCGCR
modifications: in neurobasal medium, 20 ng/mL
notes: neurobasal medium containing MP52 at 20 nanograms/milliliter
For the molecule B3, in assay [3] (setting [5]), the “Percentage of cells staining positive for GFAP” value is recorded as “≧80%”, the “Percentage of cells staining positive for TH” value came out at 6.1% and the “Percentage of cells staining positive for TuJ1” value worked out at 12.5%.
